Test results taken from patent US20110008345A1 (GlaxoSmithKline, published 2011).
Changes are numbered by the printed parent chain. Read-outs that look alike come from different tables or passages of the source.

Legend:
[1] = target: T1, recombinant E. coli-expressed cynomolgus IL-13 (cynomolgus, UniProt Q0PW92 21-132); test: SPR
T1 construct: also called cyno IL-13

[2] = target: T2, recombinant E. coli-expressed cynomolgus IL-4 (cynomolgus, UniProt P79339 25-153); test: SPR
T2 construct: also called cyno IL-4
T2 sequence (looked up): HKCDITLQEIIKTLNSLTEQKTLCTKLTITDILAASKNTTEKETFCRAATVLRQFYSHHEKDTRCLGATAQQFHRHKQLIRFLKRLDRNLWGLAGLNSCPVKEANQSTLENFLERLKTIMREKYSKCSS

[3] = target: recombinant E. coli-expressed human IL-18 (human, UniProt Q14116 37-193); test: ELISA
[4] = target: T3, Recombinant Human HGF R (c-MET)/Fc Chimera (human, UniProt P08581 25-932); test: ELISA
T3 construct: bought; also called HGF receptor

recombinant human IL-12 = target: T4, recombinant human IL-12 (human, UniProt P29459 23-219; P29460 23-328); test: ELISA
T4 sequence (looked up) 1: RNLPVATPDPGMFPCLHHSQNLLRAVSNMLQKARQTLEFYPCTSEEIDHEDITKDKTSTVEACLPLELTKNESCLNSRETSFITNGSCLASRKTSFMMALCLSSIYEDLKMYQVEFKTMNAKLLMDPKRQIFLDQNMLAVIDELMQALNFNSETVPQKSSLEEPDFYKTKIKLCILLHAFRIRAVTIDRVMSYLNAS
T4 sequence (looked up) 2: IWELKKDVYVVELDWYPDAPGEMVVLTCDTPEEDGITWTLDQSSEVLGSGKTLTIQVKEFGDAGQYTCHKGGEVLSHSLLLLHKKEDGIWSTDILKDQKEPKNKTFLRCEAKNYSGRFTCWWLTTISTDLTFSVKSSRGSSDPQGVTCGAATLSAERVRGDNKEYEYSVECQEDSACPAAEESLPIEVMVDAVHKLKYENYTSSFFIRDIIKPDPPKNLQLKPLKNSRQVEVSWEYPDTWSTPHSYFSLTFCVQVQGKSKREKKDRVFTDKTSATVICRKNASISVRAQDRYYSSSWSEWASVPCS

RNAse A = target: T5, RNAse A (UniProt P61823 27-150); test: ELISA
T5 sequence (looked up): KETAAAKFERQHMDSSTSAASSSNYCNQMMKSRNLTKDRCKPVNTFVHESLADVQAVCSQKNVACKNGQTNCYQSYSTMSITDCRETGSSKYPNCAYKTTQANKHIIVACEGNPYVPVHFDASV

recombinant human VEGF = target: T6, recombinant human VEGF (human, UniProt P15692-4 27-191); test: ELISA
T6 construct: also called VEGF165; hVEGF165

[5] = target: recombinant human TNF-alpha (human, UniProt P01375 77-233); test: ELISA
[6] = target: recombinant Sf21-expressed human IL-5 (human, UniProt P05113 20-134); test: ELISA
HEL (Hen Egg Lysozyme) = target: T7, HEL (Hen Egg Lysozyme) (hen, UniProt P00698 19-147); test: ELISA
T7 construct: also called hen egg white lysozyme

[7] = target: T8, recombinant E. coli-expressed human IL-4 (human, UniProt P05112 25-153); test: SPR
T8 construct: made and purified at GSK; also called Interleukin-4; rhIL-4
T8 sequence: T2 sequence (looked up) with K26E, I29V, L33F

[8] = target: T9, recombinant E. coli-expressed human IL-13 (human, UniProt P35225 35-146); test: SPR
T9 construct: made and purified at GSK; also called Interleukin-13; rhIL-13

[9] = target: T8, recombinant E. coli-expressed human IL-4; test: SPR exp 2
[10] = target: T8, recombinant E. coli-expressed human IL-4; test: cell-based or functional assay
[11] = target: T8, recombinant E. coli-expressed human IL-4; test: SPR, purified
[12] = target: T8, recombinant E. coli-expressed human IL-4; test: SPR stoichiometry
[13] = target: T8, recombinant E. coli-expressed human IL-4; test: SPR exp 1
[14] = target: T8, recombinant E. coli-expressed human IL-4; test: SPR exp 2; remark: listed apart in the source
[15] = target: T8, recombinant E. coli-expressed human IL-4; test: SPR, purified; remark: listed apart in the source
[16] = target: T8, recombinant E. coli-expressed human IL-4; test: SPR exp 3
[17] = target: T8, recombinant E. coli-expressed human IL-4; test: SPR; remark: listed apart in the source
[18] = target: T8, recombinant E. coli-expressed human IL-4; test: SPR exp 1; remark: listed apart in the source
[19] = target: T8, recombinant E. coli-expressed human IL-4; test: SPR; remark: listed apart in the source
[20] = target: T8, recombinant E. coli-expressed human IL-4; test: SPR; remark: listed apart in the source
[21] = target: T2, recombinant E. coli-expressed …; test: cell-based or functional assay
[22] = target: T8, recombinant E. coli-expressed human IL-4; test: cell-based or functional assay; remark: listed apart in the source
[23] = target: T8, recombinant E. coli-expressed human IL-4; test: SPR exp 1; remark: listed apart in the source
[24] = target: T8, recombinant E. coli-expressed human IL-4; test: SPR exp 2; remark: listed apart in the source
[25] = target: T8, recombinant E. coli-expressed human IL-4; test: ELISA, IL-4 binding to IL4Ralpha-Fc
[26] = target: T9, recombinant E. coli-expressed human …; test: SPR; remark: listed apart in the source
[27] = target: T9, recombinant E. coli-expressed human …; test: SPR exp 1
[28] = target: T9, recombinant E. coli-expressed human …; test: cell-based or functional assay
[29] = target: T9, recombinant E. coli-expressed human …; test: SPR, purified
[30] = target: T9, recombinant E. coli-expressed human …; test: SPR stoichiometry
[31] = target: T9, recombinant E. coli-expressed human …; test: SPR, purified; remark: listed apart in the source
[32] = target: T9, recombinant E. coli-expressed human …; test: ELISA, IL-13 binding to IL13Ralpha2/Fc
[33] = target: T9, recombinant E. coli-expressed human …; test: SPR exp 3
[34] = target: T9, recombinant E. coli-expressed human …; test: SPR; remark: listed apart in the source
[35] = target: T1, recombinant E. coli-expressed …; test: SPR; remark: listed apart in the source
[36] = target: T9, recombinant E. coli-expressed human …; test: SPR exp 1; remark: listed apart in the source
[37] = target: T9, recombinant E. coli-expressed human …; test: SPR; remark: listed apart in the source
[38] = target: T9, recombinant E. coli-expressed human …; test: SPR, no IL-4 bound
[39] = target: T9, recombinant E. coli-expressed human …; test: SPR exp 2
[40] = target: T1, recombinant E. coli-expressed …; test: SPR; remark: listed apart in the source
[41] = target: T9, recombinant E. coli-expressed human …; test: SPR exp 1; remark: listed apart in the source
[42] = target: T10, recombinant human IGF-1R-his tag (human, UniProt P08069 31-932); test: ELISA
T10 construct: bought; also called rhIGF-1R

[43] = target: T9, recombinant E. coli-expressed human …; test: SPR; remark: listed apart in the source

T7 sequence (P00698 19-147): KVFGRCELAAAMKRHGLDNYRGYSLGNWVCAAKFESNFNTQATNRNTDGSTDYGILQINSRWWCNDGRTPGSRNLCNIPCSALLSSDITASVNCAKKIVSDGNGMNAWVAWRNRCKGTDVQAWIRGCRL
T3 sequence (P08581 25-932 limits assumed, change not shown): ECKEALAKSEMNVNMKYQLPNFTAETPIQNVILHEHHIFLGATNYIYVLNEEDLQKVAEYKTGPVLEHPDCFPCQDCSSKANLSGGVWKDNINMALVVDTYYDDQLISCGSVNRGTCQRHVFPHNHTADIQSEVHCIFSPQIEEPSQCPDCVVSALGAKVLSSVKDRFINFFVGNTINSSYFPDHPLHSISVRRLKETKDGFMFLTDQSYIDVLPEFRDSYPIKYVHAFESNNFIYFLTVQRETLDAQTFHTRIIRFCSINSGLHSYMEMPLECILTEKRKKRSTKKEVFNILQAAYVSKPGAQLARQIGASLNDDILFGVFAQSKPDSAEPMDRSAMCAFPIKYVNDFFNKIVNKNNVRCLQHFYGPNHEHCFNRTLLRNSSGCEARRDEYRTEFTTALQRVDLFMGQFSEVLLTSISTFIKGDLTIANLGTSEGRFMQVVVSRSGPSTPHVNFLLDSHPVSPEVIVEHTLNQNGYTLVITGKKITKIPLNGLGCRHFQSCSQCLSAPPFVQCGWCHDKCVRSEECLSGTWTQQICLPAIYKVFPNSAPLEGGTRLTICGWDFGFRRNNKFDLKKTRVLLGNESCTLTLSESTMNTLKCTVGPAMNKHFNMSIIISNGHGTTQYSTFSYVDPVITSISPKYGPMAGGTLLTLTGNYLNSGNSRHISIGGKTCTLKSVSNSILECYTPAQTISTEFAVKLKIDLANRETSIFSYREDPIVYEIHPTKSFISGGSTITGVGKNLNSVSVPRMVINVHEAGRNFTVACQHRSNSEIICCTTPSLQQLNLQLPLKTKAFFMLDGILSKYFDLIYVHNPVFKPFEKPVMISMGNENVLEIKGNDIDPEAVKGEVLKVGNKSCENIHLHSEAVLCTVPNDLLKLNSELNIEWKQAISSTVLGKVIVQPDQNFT

B1: Pascolizumab (Anti-human IL-4 monoclonal antibody) (antibody, human IgG1, kappa, V domains shown)
VH: QVTLRESGPALVKPTQTLTLTCTFSGFSLSTSGMGVSWIRQPPGKGLEWLAHIYWDDDKRYNPSLKSRLTISKDTSRNQVVLTMTNMDPVDTATYYCARRETVFYWYFDVWGRGTLVTVSS
VL: DIVLTQSPSSLSASVGDRVTITCKASQSVDYDGDSYMNWYQQKPGKAPKLLIYAASNLESGIPSRFSGSGSGTDFTFTISSLQPEDIATYYCQQSNEDPPTFGQGTKVEIKR
notes: also called anti-human IL4 mAb; IL-4 mAb
binding result [1]: no binding | Kd [2]: 0.046 nM | koff [2]: 0.000108 s⁻¹ | kon [2]: 2.34e+06 M⁻¹ s⁻¹ | binding result [3]: no binding | binding result [4]: no binding | binding result (recombinant human IL-12): no binding | binding result (RNAse A): no binding (tested: 2 ug/mL) | binding result (recombinant human VEGF): no binding | binding result [5]: no binding (tested: 1 ug/ml) | binding result [6]: no binding | binding result (HEL (Hen Egg Lysozyme)): no binding | Kd [7]: 0.02 nM | binding result [8]: no binding | Kd [9]: 0.06 nM | koff [9]: 0.000123 s⁻¹ | kon [9]: 2.04e+06 M⁻¹ s⁻¹ | Mean IC50 (whole blood phospho-STAT6) [10]: 2.44 nM | Kd [11]: 0.03 nM | Stoichiometry [12]: 1.8 | Kd [13]: 0.03 nM | koff [13]: 0.00016 s⁻¹ | kon [13]: 5.3e+06 M⁻¹ s⁻¹ | Kd [14]: 0.011 nM | Kd [15]: 0.037 nM | Kd [16]: 0.013 nM | Kd [17]: 0.00572 nM | koff [17]: 2.43e-05 s⁻¹ | kon [17]: 4.25e+06 M⁻¹ s⁻¹ | Kd [18]: 0.0137 nM | Kd [19]: 0.037 nM | Kd [20]: 0.06 nM | koff [20]: 0.000123 s⁻¹ | kon [20]: 2.04e+06 M⁻¹ s⁻¹ | Mean ND50 (TF-1) [21]: 2.62 nM | Mean ND50 (TF-1) [22]: 1.36 nM | Kd [23]: 0.0137 nM | Kd [24]: 0.011 nM | IC50 [25]: 3.45 nM

B2: Anti-human IL-13 monoclonal antibody (also known as 586) (antibody, human IgG1, kappa)
heavy: not shown
light: DIVMTQSPLSLPVTPGEPASISCRSSQNIVHINGNTYLEWYLQKPGQSPRLLIYKISDRFSGVPDRFSGSGSGTDFTLKISRVEADDVGIYYCFQGSHVPWTFGQGTKLEIKRTVAAPSVFIFPPSDEQLKSGTASVVCLLNNFYPREAKVQWKVDNALQSGNSQESVTEQDSKDSTYSLSSTLTLSKADYEKHKVYACEVTHQGLSSPVTKSFNRGEC
notes: also called Anti-human IL-13 mAb; anti-IL13 mAb
Kd [1]: 0.222 nM | koff [1]: 0.000105 s⁻¹ | kon [1]: 474000 M⁻¹ s⁻¹ | binding result [2]: no binding | binding result [6]: no binding | Kd [26]: 0.38 nM | Kd [8]: 0.38 nM | Kd [27]: 0.57 nM | koff [27]: 0.00049 s⁻¹ | kon [27]: 860000 M⁻¹ s⁻¹ | Mean IC50 (whole blood phospho-STAT6) [28]: 1.47 nM | Kd [29]: 0.43 nM | Stoichiometry [30]: 1.8 | Kd [31]: 0.41 nM | IC50 [32]: 6.43 nM | Kd [33]: 0.547 nM | Kd [34]: 0.377 nM | koff [34]: 0.000378 s⁻¹ | kon [34]: 1e+06 M⁻¹ s⁻¹ | Kd [35]: 0.119 nM | koff [35]: 6.55e-05 s⁻¹ | kon [35]: 550000 M⁻¹ s⁻¹ | Kd [36]: 0.28 nM | Kd [37]: 0.41 nM | Kd [38]: 0.366 nM | koff [38]: 0.000368 s⁻¹ | kon [38]: 1.01e+06 M⁻¹ s⁻¹ | Kd [39]: 0.67 nM | koff [39]: 0.000611 s⁻¹ | Kd [40]: 0.171 nM | koff [40]: 8.22e-05 s⁻¹ | kon [40]: 479000 M⁻¹ s⁻¹ | binding result [23]: no binding (tested: 256 nM) | Kd [41]: 0.28 nM

B3: 586H-210 GS removed (bispecific antibody, human IgG1, kappa)
heavy: not shown
light: B2 light
notes: also called BPC1601
Kd [1]: 0.044 nM | koff [1]: 2.24e-05 s⁻¹ | kon [1]: 507000 M⁻¹ s⁻¹ | binding result [2]: binds | binding result [42]: no binding | binding result (recombinant human VEGF): no binding | Kd [43]: 0.44 nM | Kd [33]: 0.438 nM | IC50 [25]: 36.2 nM
